# Test: soluble on expression in E. coli; label from the status in PepcDB or PDB records
row,Sequence,soluble on expression in E. coli
1,MGSDKIHHHHHHMKIQEVKRILTRWQPSSFSLYREVFTQYGGSINMHPDIVDYFMKRYNWHFKFFHYKEDDKIKGAYFICNDQNIGILTRRTFPLSSDEILIPMAPDLRCFLPDRTNRLSALHQPQIRNAIWKLARKKQNCLVKETFSSKFEKTRRNEYQRFLKKGGSVKSVADCSSDELTHIFIELFRSRFGNTSSCYPADNLANFFSQLHHLLFGHILYIEGIPCAFDIVLKSESQMNIYFDVSNGAIKNECRPLSPGSILMWLNISRARHYCQERQKKLLFSIGILKPEWEYKRMWSTPYFTGKSIC,not soluble
2,MAEMTEMQVHEERVMNLVESSSGTPTITPLTKTNAHRAESIRRIGTDKDAVAFHFRKKSTGMYMYIHTYTENGEEKELRASDFKNWEVTEFKYPGYLEELEEIAVNAYRWNSHDPETRAETDIMGYEKQLHEDLKKIPEAKKRITSILTKVKYPFYSTASHAAQTRW,not soluble
3,MSLTPSVSTKELEGGLLIVDEMSMVDTWLANTLFKAIPTNMQVILVGDKDQLPSVGPGQVLHDLLEIEQIPKMELNQIYRQGDGSSIIPLAHEIKEGRLPKDFTKNQKDRSYFRSDAYQIEPLISKIVEKAKNKGFRAQDIQVLAPMYRGPAGIDALNKMMQEIFNPGKPGKKEVHWNDTVYRIGDKVLQLVNTPELNVFNGDMGEITGIILAKDSEDKVDELVIQFDANEVTYKRNEWNKITLSYCCSIHKSQGSEFKMVILPMVHQYQRMLQRNLLYTAVTRSKELLILLGEEQAYVTCVANESASRMTTLKSRIMDNDKMNEGHHHHHH,not soluble
4,MASYRKRENGLWEYRISYKTIDGKYKRKEKGGFKTKKLAQAAAIEIEKKLTQNILTNDEVTLYDFVKTWSEVYKRPYVKDKTWETYSKNFKHIKNYFQELKVKDITPLYYQKKLNEFGEKYAQETLEKFHYQIKGAMKVAVREQVVTFNFAEGAKVKSQVEPKNEEEDFLEEREYKALLALTRENIQYVSYFTLYLLAVTGLRFSEAMGLTWSDIDFKNGILDINKSFDYSNTQDFADLKNESSKRKVPIDSNTIDILREYKKNHWQANIKNRVCFGVSNSACNKLIKKIVGRKVRNHSLRHTYASFLILNGVDIVTISKLLGHESPDITLKVYTHQMEALAERNFEKIKNIFLVA,not soluble
5,MRLIVVGIAEDITEKKQLETELQRLATTDVLTQSSNRRHFFECANREFEQARLQGSSLAFLLLDIDDFKVINDTYGHPEGDIVLQRIAESGRAALRRGDLFGRIGGEEFAAVFPGCTADMARQVAERLQREIQRQNFSHQGQTFTITVSQGLTGLLAEDESLDNLFARADSAMYEAKRQGKNRIITGLEHHHHHH,not soluble
6,MSNIPKELKYTKSHEWVKIDGDEVTVGITAHAQSLLGDLVYVELPEIGKEFAAGDDSCVVESVKAASDVYAPVDGEVIEINEALVDDPSRVNHTPYKDGWLFKLKISDESQLADLLTADAYAKTLED,not soluble
7,SYHTGTAYGMIDLPRILRSITTFESFGKVKIGILKKGIQAIESLLVARHQMYSAVYMHPTVRIADTMIKRAVIKEIQEKNLDIKDLANMDDIALVSFLRISENYLMERIDRRNLYKNLITYSYFDLNPIEKWIFVNLDEKQILSLESRFYEEFGWDIFIDIYPIPKMEEHNVYIISDEGVKRLDEVSPLAQSLK,not soluble
8,MKIGVDAGGTLIKIVQEKNGERTYSTRLTTEIEEVIQWLNQQDCNNINLTGGQAAMINEQLNCESRVFVEFDAAAKGLEILLEEQGHFLDDYIFTNVGTGTSLHFSNGKAQKRVGGIGTGGGMIQGLGYLLTGISNYKQLTDTAQNGNRDIIDLKVKHIYKDSEPPISGDLTAANFGNVLHHLDESFTDADKLASVIAVVGEVITTMSITVAREHNTKNVAYIGSSFHNNDLLKDVVKDYTVLRGCEPYYIEHGAFSGALGSIHLLEHHHHHH,not soluble
9,MGTRSKRSERCARCRLHIHRCVCPAMPRYSLATRVVLVMHHREYPKTTATGPLALEILPNSELRIHGEPGRSLNLSDLDTPARRILLLYPGDDVPVLDRELLERDGRPVTLVVPDGTWRQASRMGRRLPGLARAEMVRLPPGPPTEWGVRRENHPQGLATFEAIARALGIIESPDVQSGMEHLFRLMVRQTLGARGCAVDRDLEHHHHHH,soluble
10,MSLSPARAQEEISRLQQQIKQWDDDYWKEGKSEVEDGVYDQLSARLTQWQRCFGSEPRDVMMPPLNGAVMHPVAHTGVRKMVDKNALSLWMRERSDLWVQPKVDGVAVTLVYRDGKLNKAISRGNGLKGEDWTQKVSLISAVPQTVSGPLANSTLQGEIFLQREGHIQQQMGGINARAKVAGLMMRQDDSDTLNSLGVFVWAWPDGPQLMSDRLKELATAGFTLTQTYTRAVKNADEVARVRNEWWKAELPFVTDGVVVRAAKEPESRHWLPGQAEWLVAWKYQPVAQVAEVKAIQFAVGKSGKISVVASLAPVMLDDKKVQRVNIGSVRRWQEWDIAPGDQILVSLAGQGIPRIDDVVWRGAERTKPTPPENRFNSLTCYFASDVCQEQFISRLVWLGAKQVLGLDGIGEAGWRALHQTHRFEHIFSWLLLTPEQLQNTPGIAKSKSAQLWHQFNLARKQPFTRWVMAMGIPLTRAALNASDERSWSQLLFSTEQFWQQLPGTGSGRARQVIEWKENAQIKKLGSWLAAQQITGFEEGHHHHHH,soluble
11,SNPTITRIELSYQDSSIANGTSTTLEVTAIFDNGTNQNITDSTSIVPDSQSVVTIEGNRVRGIASGSSIIKAEYNGLYSEQKITVTPAILNSIQVTSLESGILPKGTNRQFSAIGIFSDGSHQDISNEPLIVWSSSNPDLVRVDDSGLASGINLGTAHIRASFQSKQGAEEMTVGDAVLSQIQVTSNDLNIPLGKKQKLTATGIYSDNSNRDISSSVIWNSSNSTIANIQNNGILETADTGIVTVSASSENIIGSVKLIVTPAALVSISVSPTNSTVAKGLQENFKATGIFTDNSNSDITDQVTWDSSNTDILSISNASDSHGLASTLNQGNVKVTASIGGIQGSTDFKVTQAALTSIEVSPTRTSIAKGLTQKFTAIGIFTDNSKKDITDQVTWNSSSAIVSVSNLDNNKGLGKTNSVGNTTITATLGKVSGNTWFTVVPAV,not soluble
12,MTPLQQAQLSPQEEAVFDGDAISGSGLRFSELTRPVNLLVMGMSVLPPDVQNPPTETQNLRYLPQVNSFDGLADVMLMVKFDPETKKIAMLSIPRDTRTRIEGHGVRKINAANVEGGPALTATTVSNLLGGVGIDRYIRINVLGVGKLIDALGGVTVYVPKDMKYQDHSQHLYINLKAGKQHLNGDQVLQLLRFRHDELGDIGRIQRQQMVMRALMDQALNPVTVAQLPKILNVVKDNIDTNLTVEELVALVGFGVRTNRTNMQMLMLPGRFSEPNEYNASYWIPSKNGIAKLMAQHFGLESLSENPVNDPTAVRVAIQDSTGSDRSQLRPLINALEKAGYRNVYVANAWTEPLEVTNIIAQQGDGNSAESIRNALGFGEVRVESTGSLNSDISIQVGKDWLQQKSLLEDSIKFLEHHHHHH,soluble
13,MSLNKAMQEVNLEDSLKFFEQAANQPAALLKVQTQWWEQQLQIWQKVVLESKIQSIMEAEKGDKRFSHEAWQQDPFFNFIKQSYLLFSKTYLDTINAIEGLDEKAKERILFFSRQMINALSPSNFIATNPELLRLTLEKNGENLIAGLEQLKEDVASSADILKIRMTNNNAFRLGEDVANTPGEVVFKNEVFELIQYKPLTEQVAVTPLLIVPPFINKYYILDLREKNSMVRWLVEQGHSVFMISWRNPGAAQAQLNFEDYVLEGVVKAVNAIESITGQEQINAAGYCIGGTVLATTIAYYAAKRMKKRIKTASFFTTLLDFSQPGEVGAYINDTIIRAIELQNNAKGYMDGRSLSVTFSLLRENSLYWNYYVDNYLKGQSPVDFDLLYWNSDSTNVAGACHNFLLRELYLENKLVQDKGVKVGGVWIDLDKIKVPSYFISTKEDHIALWQGTYRGALRTGGNKTFVLGESGHIAGIVNHPDKRKYGYWVNDTLDDSAEDWLETAQHREGSWWVHWNEWLNGFADGSKVEPYPLGNADYPVLYSAPGEYVKQVLPIQEEGHHHHHH,soluble
14,MAHHHHHHMLGEGLDIGFYAEDAYAAYVTDLATSLHLVPHCRNARGATLEVVFTGPFHDLSAYEEAVKQGKLVPYAELPWPVAEERGVQGVSGATLSVTLHGWIEKLNAARKVQLMEPLFPAAELGATIAEICVMGDAGNSAPCAFASTSPPCVAESAGTSNEKGTHPSLKPSRFRILGSLDFLLHLSSRDWLMGESSVPADSPSADGRDEANPNFAVGADDATRAAHACRDALEQRDDVALARNAVNTVIKMAQMAEEHPGEVGSVFVDAKERVEYIQFSAQ,not soluble
15,AIAADTVDGKKEEADYKRLHNFPLIRHTDMPEEMRVETMELCVTACEKFATNNESAAKMIKESMDKKFGSSWHVVIGEGFGFEITHEVKNLLYMFFGGSLAVCVWKCS,soluble
16,GMGSLAEWYQRIPTPDDLTRVESLFANMQAQFPQLKLEFKWNQPMFTDHGTFIMGFNPSKKHLAVAIEPQTMTRFIPQIDKAGYDHSQIIRFPWHKPLDEQLIHDLIAYTIDQKKDATTFWQR,soluble
17,MSEPSNLVSKFQKLRVEASKIQNEFKEKPSYTLFKETLDISEKLLEKQFEFNDEMKQIQQNVMSELKSVKKELKQATSIKDLLEILEIIQKIFKKQDEFQQVQENQNKSIENLNSELKTVKAELNETKKQQESQEKLIDNSDKNLKLILESILKFQKSQDQIMMKIMEGSAVQDVPLGTVELTKIDPFFEILVIWTESCGIFASENHWKLRVCGSDTIRHIKLRINSLAKVDISSFRMVLRGKLLEDHHSLAYYNIQEGALIWLYSHLKMSETSSLMSQFQKLRVETSKIYNEFTEMVKNETSDMKKQQETQILKEQDEFQDEIRQEFLKIQENENKLIEKLMSELKTLKTELNETKNQISDLHNATKQQESQAQSMNDLLTKNSNNNLKMMLKIQEGQDRIMMKIQEGAAVKDVPIESGELAKNDSMFKIFVSWSIPGGIFVSENRRKLPVYESNTIRQIKLRINSLKSQDQMKIQEGEFAKKIEESVAPVKTPLEAPIEDKKLDNKKPFFKITVHLHGGPNASVYGRKYNHLVFDAHTIRDLKVRIKALIMQSSPIKLRTELYRLFFVYTLLEDHQTIAYYKFKKAQHLT,soluble
18,MSLSQLREIQQQFMDYLLASAAQTPIPETIEKPFSDKVAEQGGVGRDIRMQIYANAYRIRLTEVLDTDHEILGLYLGDDLFARMANGYIAHQPSRFTSLRQFADALPGYLASDAFFSQYPIISDIARFERRLLNAFDAKDEQRASFAALQSLPADAWPYCQLRFHPSVQLFECASNAVETWQALKHQQVPPAPDYQGKHAWLLWRGENRLTEFISLAEYQLALIQGFIHGANIAEQCELMLNFFTPEEAMQQLLQALQAWFQLGLILSVQPNEGHHHHHH,not soluble
19,HDLALSGNAYKVRLFLSLIGREATLRPVDFLNREHKTQAFLRMNPRGQIPVLEDGELQLGDSHAILVYLARRHADPVWYPLDPVSQGRIAYWLSYSANEVQNGPASARLITRFNLPLDREQTHQRGLEVLRLVDRHLAEHRWLAQGEQPSIADVALYPYLALAPEGGLALDHYPALNAWIARIRALPGYIPMPGL,not soluble
20,MKSHDLKKALCQWTAMLALVVSGAVWAANGVDFSQSPEVSGTQEGAIRMPKEQDRMPLNYVNQPPMIPHSVEGYQVTTNTNRCLQCHGVESYRTTGAPRISPTHFMDSDGKVGAEVAPRRYFCLQCHVPQADTAPIVGNTFTPSKGYGK,soluble
21,MAEEQARHVKNGLECIRALKAEPIGSLAIEEAMAAWSEISDNPGQERATCREEKAGSSGLSKPCLSAIGSTEGGAPRIRGQGPGESDDDAETLGIPPRNLQASSTGLQCYYVYDHSGEAVKGIQDADSIMVQSGLDGDSTLSGGDNESENSDVDIGEPDTEGYAITDRGSAPISMGFRASDVETAEGGEIHELLRLQSRGNNFPKLGKTLNVPPPPDPGRASTSGTPIKKGHRREISLIWNGDRVFIDRWCNPMCSKVTLGTIRARCTCGECPRVCEQCRTDTGVDTRIWYHNLPEIPE,not soluble
